Measured values as given in publication PMC5003437, “Development and Optimization of a Thrombin Sandwich Aptamer Microarray”.

Legend:
[1] = molecular target: T1, human alpha-thrombin (Homo sapiens, UniProt P00734;P00734 328-363;364-622); test: sandwich aptamer microarray (fluorescence); thrombin captured on immobilized TBA1; LOD 0.75 nM (not Kd); 20 mM Tris, 140 mM NaCl, 5 mM KCl, 1 mM MgCl2, pH 7.5, 25 C; 30 min pre-incubation with TBA2, then 2 h on array; PBS wash
[2] = molecular target: T1, human alpha-thrombin; test: sandwich aptamer microarray (fluorescence); thrombin captured on immobilized TBA1, Cy3-streptavidin detection; LOD 0.17 nM (not Kd); 20 mM Tris, 140 mM NaCl, 5 mM KCl, 1 mM MgCl2, pH 7.5, 25 C; 30 min pre-incubation with TBA2, then 2 h on array; PBS wash

Binder | binding result [1] | binding result [2]
AGTCCGTGGTAGGGCAGGTTGGGGTGACT (structured_DNA) [TBA2-Cy5] | binds | –
AGTCCGTGGTAGGGCAGGTTGGGGTGACT (structured_DNA) [TBA2-biotin] | – | binds
